Test [1] concerns T cell line TCSJL195-212.
Experimental: T cell lines and clones specific to p195-212 were established from lymph node cells of high (SJL) responder mouse strain by the method described by Brocke et al. (1990a), supra, and designated TCSJL195-212 line (Mozes, E. et al. (1991), supra; see also Kirshner et al. (1994), supra).
Cells (10^4 per well) of the T cell Line TCSJL195-212 or TCBALB/c259-271 were incubated in the presence of irradiated syngeneic spleen cells (0.5×10^6), either p195-212 or p259-271 (10 μM) and various concentrations of the dual epitope analogs 207Ala-262Lys or 262Lys-207Ala for 48 h. Thereafter, ^3 H-thymidine was added and 16 h later plates we harvested.
For test [2], the system named is peripheral blood lymphocytes (PBL) of myasthenia gravis patients. Particulars: 96 h.
Experimental: Peripheral blood lymphocytes (PBL) of myasthenia gravis patients and of the appropriate control donors (2×10^5 cells/well) were assayed in microtiter plates in 0.2 ml enriched medium containing 10% autologous serum, in the presence of different doses of the peptides p195-212 and the analog 207Ala for 96 h, followed by an overnight pulse with 0.5 μCi of ^3 H-thymidine. Cells were harvested and radioactivity determined. Inhibition of the proliferative responses was done by adding different doses of 207Ala into the incubation mixture at the same time as the pathogenic peptide p195-212.
For test [3], the target named is p259-271 presented by antigen-presenting cells of MG patients (HLA class II) (human).
Test [4] deals with p195-212 presented by antigen-presenting cells of MG patients (HLA class II) (human).
Test [5] has as its target MHC class II of SJL mice (on antigen presenting cells).
For test [6], the target named is MHC class II on human antigen presenting cells.
In test [7] the target is MHC Class II molecules of BALB/c mice (on syngeneic spleen cells used as antigen-presenting cells).
Test [8] shares this target. This is another data set of the same source.
Test [9] has the same target. This is another data set of the same source.
For test [10], the target named is MHC class II of SJL mice (on antigen presenting cells). The test is described as follows: flow cytometry, biotinylated peptide on SJL antigen presenting cells, PE-streptavidin.

Where no end group is shown, it is not given here. The star is where a group is joined. Biotin = O=C1N[C@H]2[C@H](CS[C@H]2CCCCC(=O)*)N1; Ahx = NCCCCCC(=O)O Bounds are passed on as bounds.

For the molecule DTPYLDITYHFVAQRLPL [207Ala], the “inhibition of the proliferative response of the TCSJL195-212 line to p195-212” value in [1] is listed as “more than 99%”. The “inhibition of proliferative responses of PBL, all three patients” value in [2] was 77-100%.
As to “peripheral blood lymphocytes (PBL) of myasthenia gravis patients (cells without a defined receptor)”, the proliferative response of PBL, stimulation index (SI) (stimulation index) in test [3] stood at 4.1; in test [4], 6.3.

B1: 207Ala analog of p195-212 (peptide)
peptide: DTPYLDITYHFVAQRLPL
For B1, the inhibition of the p195-212 specific proliferative response of TCSJL195-212 in test [5] was more than 99 % inhibition.

B2: 262Lys analog of p259-271 (peptide)
peptide: VIVKLIPSTSSAV
For the molecule B2, in test [6], the % inhibition of the p259-271 induced proliferative response of PBL (three MG patients) is 100 % inhibition. This molecule also came in with a % of inhibition of the p259-271 specific proliferative response of TCBALB/c259-271 in test [7] of less than 93 % inhibition. The same molecule had an inhibition of the proliferative response of lymph node cells of p259-271 immunized BALB/c mice to p259-271 in [8] of less than 64.7 % inhibition. The molecule further displayed an inhibition of the helper activity of TCBALB/c259-271 (p259-271 specific antibody production) in test [9] of less than 80 % inhibition.

B3: 262Asp analog of p259-271 (peptide)
peptide: VIVDLIPSTSSAV
With B3, the % inhibition of the p259-271 induced proliferative response of PBL (three MG patients) in test [6] stood at 78 % inhibition.

B4: biotinylated dual analog 262Lys-207Ala (peptide)
peptide: {Biotin-Ahx}-VIVKLIPSTSSAVDTPYLDITYHFVAQRLPL
In test [10], B4 registered a fold affinity against 207Ala-262Lys of 10 fold.

B5: 266Asp analog of p259-271 (peptide)
peptide: VIVELIPDTSSAV
Molecule B5 yielded a % inhibition of the p259-271 induced proliferative response of PBL (three MG patients) in [6] of 85.6 % inhibition.
